Results reported in US12528870B2, “Anti-c-Met antibody-drug conjugate and applications thereof” (REMEGEN CO., LTD., priority 2020, dated 2026).
Where two headings read alike, the source gives them in different places.

What was measured:
[1] = molecular target: c-Met protein (Homo sapiens, UniProt P08581); assay: ELISA binding ability to c-Met antigen; conditions: c-Met protein coated at 2 μg/ml
Protocol: The c-Met protein was prepared with a diluent to a final concentration of 2 μg/ml, and added to a microplate at 100 μl per well, overnight at 4° C. The solution in the well was discarded, and the plate was washed three times with PBST. The plate was added with a blocking solution at 300 μl/well and incubated at 37° C. for 2 h. The solution in the well was discarded, and the plate was washed three times with PBST. AAJ8D6 antibody and ABT-700 (i.e., telisotuzumab, its sequence information can be found at https://extranet.who.int/soinn/mod/page/view.php?id=137&inn n=10366, the same below) were diluted to 9 concentrations, added to the 96-well plate and incubated for 2 h. The solution in the well was discarded, and the plate was washed three times with PBST. HRP detection antibody was prepared by adding diluent at a dilution of 1:5000, added at 100 μl per well, and incubated at 37° C. for 1 h. The solution in the well was discarded, and the plate was washed three times with PB ST. The plate was added with TMB color developing solution, incubated at room temperature for 2 min, and then added with Elisa stop solution.

[2] = test system: advanced solid tumors / NSCLC; conditions: cited from earlier work
[3] = test system: c-Met-positive NSCLC; conditions: cited from earlier work
[4] = combined administration group (with erlotinib)
[5] = single administration cohort, c-Met-positive NSCLC

Chain of c-Met protein (P08581 25-1390): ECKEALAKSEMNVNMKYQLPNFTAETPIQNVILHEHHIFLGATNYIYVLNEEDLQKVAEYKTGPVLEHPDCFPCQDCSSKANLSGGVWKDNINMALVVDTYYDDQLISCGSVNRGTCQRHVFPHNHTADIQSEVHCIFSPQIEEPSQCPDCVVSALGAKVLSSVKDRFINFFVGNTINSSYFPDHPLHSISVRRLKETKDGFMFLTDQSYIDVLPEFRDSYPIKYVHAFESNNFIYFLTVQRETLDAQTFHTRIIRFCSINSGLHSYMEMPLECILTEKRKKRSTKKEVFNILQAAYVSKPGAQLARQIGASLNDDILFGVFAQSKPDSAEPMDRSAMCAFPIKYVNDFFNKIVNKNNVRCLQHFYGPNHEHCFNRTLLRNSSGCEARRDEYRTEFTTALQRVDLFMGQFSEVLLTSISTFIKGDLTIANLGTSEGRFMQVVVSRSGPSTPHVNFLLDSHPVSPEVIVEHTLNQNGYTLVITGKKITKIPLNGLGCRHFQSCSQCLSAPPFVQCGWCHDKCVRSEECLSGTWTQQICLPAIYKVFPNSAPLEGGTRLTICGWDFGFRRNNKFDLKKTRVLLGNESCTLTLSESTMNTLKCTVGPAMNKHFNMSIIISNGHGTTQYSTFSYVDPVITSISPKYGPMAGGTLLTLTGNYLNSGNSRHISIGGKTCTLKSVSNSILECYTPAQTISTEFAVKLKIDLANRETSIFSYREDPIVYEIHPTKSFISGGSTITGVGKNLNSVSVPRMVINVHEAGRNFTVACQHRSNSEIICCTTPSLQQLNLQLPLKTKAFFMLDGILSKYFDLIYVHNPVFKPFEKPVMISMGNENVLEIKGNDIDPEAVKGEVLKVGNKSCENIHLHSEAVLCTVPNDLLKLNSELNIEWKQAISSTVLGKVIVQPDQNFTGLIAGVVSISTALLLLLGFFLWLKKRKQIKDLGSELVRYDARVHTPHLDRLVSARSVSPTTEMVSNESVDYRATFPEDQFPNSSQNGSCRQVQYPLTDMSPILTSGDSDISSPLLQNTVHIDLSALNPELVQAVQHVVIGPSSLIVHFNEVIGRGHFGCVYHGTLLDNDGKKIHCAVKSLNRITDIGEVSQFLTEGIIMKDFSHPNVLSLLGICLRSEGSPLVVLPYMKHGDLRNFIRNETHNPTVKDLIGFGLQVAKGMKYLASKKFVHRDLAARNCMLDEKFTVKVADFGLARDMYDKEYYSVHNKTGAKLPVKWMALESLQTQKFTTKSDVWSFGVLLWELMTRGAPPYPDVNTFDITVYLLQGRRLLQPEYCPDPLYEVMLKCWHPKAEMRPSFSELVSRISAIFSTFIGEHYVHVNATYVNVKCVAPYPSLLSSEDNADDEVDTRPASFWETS

Row | Substance | EC50 [1] [ng/mL] | patients who experienced partial remission ([2]; NSCLC patients with H-score ≥150) | tolerated dose ([2]; every three weeks) [mg/kg] | most frequently occurring toxicity: decreased appetite ([2]; in vivo) [%] | most frequently occurring toxicity: diarrhea ([2]; in vivo) [%] | most frequently occurring toxicity: vomiting ([2]; in vivo) [%] | dose at which well tolerated ([3]; NSCLC patients) [mg/kg] | patients with partial remission ([3]; combined administration group (with erlotinib), 1 remains to be confirmed) | patients under control ([3]; combined administration group (with erlotinib), after 12 weeks of treatment) [%] | adverse reaction: nausea, patients [3, 4] [%] | adverse reaction: neuralgia, patients [3, 4] [%] | adverse reaction: fatigue, patients [3, 5] [%] | adverse reaction: nausea (first listed), patients [3, 5] [%] | adverse reaction: nausea (listed a second time), patients [3, 5] [%] | treatment-related deaths ([3]; single administration group and combined administration group) | patients under control ([3]; single administration group, after 12 weeks of administration) [%] | patients who experienced partial remission ([3]; single administration group)
1 | ABT-700: competitor anti-c-Met antibody, i.e. telisotuzumab | 1.33 |  |  |  |  |  |  |  |  |  |  |  |  |  |  |  | 
2 | ABBV-399 |  | about 19% | 2.7 | 13 | 10 | 13 | 2.7 | 4/13 | 76.9 | 23.1 | 46.2 | 43.8 | 37.5 | 18.8 | no treatment-related deaths | 56.3 | 3/16
